The results in this text go back to article PMC10318062 (Nature Communications, 2023).

B1: S2P6 (sdFab) (Fab, V domains shown)
VH: EVQLVQSGAEVKKPGASVKVSCKASGYTFTSQYMHWVRQAPGQGLEWIGIINPSGVHTSYAQKFQGRVTLTRDTSTSTLYMELSSLRSEDTAVYYCARGSPKGAFDYWGQGTLVTVSS
VL: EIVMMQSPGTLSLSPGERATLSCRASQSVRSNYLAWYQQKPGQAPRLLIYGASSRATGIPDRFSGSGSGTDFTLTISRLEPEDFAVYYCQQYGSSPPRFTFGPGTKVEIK
B2: REGN10987 (sdFab) (Fab, V domains shown)
VH: QVQLVESGGGVVQPGRSLRLSCAASGFTFSNYAMYWVRQAPGKGLEWVAVISYDGSNKYYADSVKGRFTISRDNSKNTLYLQMNSLRTEDTAVYYCASGSDYGDYLLVYWGQGTLVTVSS
VL: QSALTQPASVSGSPGQSITISCTGTSSDVGGYNYVSWYQQHPGKAPKLMIYDVSKRPSGVSNRFSGSKSGNTASLTISGLQSEDEADYYCNSLTSISTWVFGGGTKLTVL
B3: REGN10933 (sdFab) (Fab, V domains shown)
VH: QVQLVESGGGLVKPGGSLRLSCAASGFTFSDYYMSWIRQAPGKGLEWVSYITYSGSTIYYADSVKGRFTISRDNAKSSLYLQMNSLRAEDTAVYYCARDRGTTMVPFDYWGQGTLVTVSS
VL: DIQMTQSPSSLSASVGDRVTITCQASQDITNYLNWYQQKPGKAPKLLIYAASNLETGVPSRFSGSGSGTDFTFTISGLQPEDIATYYCQQYDNLPLTFGGGTKVEIK
B4: LY-CoV1404 (sdFab) (Fab, V domains shown)
VH: QITLKESGPTLVKPTQTLTLTCTFSGFSLSISGVGVGWLRQPPGKALEWLALIYWDDDKRYSPSLKSRLTISKDTSKNQVVLKMTNIDPVDTATYYCAHHSISTIFDHWGQGTLVTVSS
VL: QSALTQPASVSGSPGQSITISCTATSSDVGDYNYVSWYQQHPGKAPKLMIFEVSDRPSGISNRFSGSKSGNTASLTISGLQAEDEADYYCSSYTTSSAVFGGGTKLTVL
B5: AZD8895 (sdFab) (Fab, V domains shown)
VH: EVQLVQSGPEVKKPGTSVKVSCKASGFTFMSSAVQWVRQARGQRLEWIGWIVIGSGNTNYAQKFQERVTITRDMSTSTAYMELSSLRSEDTAVYYCAAPYCSSISCNDGFDIWGQGTMVTVSS
VL: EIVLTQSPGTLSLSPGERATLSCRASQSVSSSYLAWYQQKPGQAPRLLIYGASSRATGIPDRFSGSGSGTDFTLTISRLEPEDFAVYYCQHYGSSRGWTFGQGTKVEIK
B6: LY-CoV555 (sdFab) (Fab, V domains shown)
VH: QVQLVQSGAEVKKPGSSVKVSCKASGGTFSNYAISWVRQAPGQGLEWMGRIIPILGIANYAQKFQGRVTITADKSTSTAYMELSSLRSEDTAVYYCARGYYEARHYYYYYAMDVWGQGTAVTVSS
VL: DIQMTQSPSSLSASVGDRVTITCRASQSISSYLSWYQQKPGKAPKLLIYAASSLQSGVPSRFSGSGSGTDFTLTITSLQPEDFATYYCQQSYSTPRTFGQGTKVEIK
B7: CB6 (sdFab) (Fab, V domains shown)
VH: EVQLVESGGGLVQPGGSLRLSCAASGFTVSSNYMSWVRQAPGKGLEWVSVIYSGGSTFYADSVKGRFTISRDNSMNTLFLQMNSLRAEDTAVYYCARVLPMYGDYLDYWGQGTLVTVSS
VL: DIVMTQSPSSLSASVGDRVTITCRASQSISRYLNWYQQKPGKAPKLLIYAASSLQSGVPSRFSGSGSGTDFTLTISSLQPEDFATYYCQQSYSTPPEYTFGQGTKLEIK

For the first test, the target named is HCoV-OC43 S (HCoV-OC43, strain ; reference …, UniProt P36334). The test can be described thus: AlphaScreen or HTRF. The conditions noted are these: one partner purified. On the technique in general: Alpha assays give light when donor and acceptor beads are brought close together.
HCoV-OC43 S, sequence (P36334 14-1353): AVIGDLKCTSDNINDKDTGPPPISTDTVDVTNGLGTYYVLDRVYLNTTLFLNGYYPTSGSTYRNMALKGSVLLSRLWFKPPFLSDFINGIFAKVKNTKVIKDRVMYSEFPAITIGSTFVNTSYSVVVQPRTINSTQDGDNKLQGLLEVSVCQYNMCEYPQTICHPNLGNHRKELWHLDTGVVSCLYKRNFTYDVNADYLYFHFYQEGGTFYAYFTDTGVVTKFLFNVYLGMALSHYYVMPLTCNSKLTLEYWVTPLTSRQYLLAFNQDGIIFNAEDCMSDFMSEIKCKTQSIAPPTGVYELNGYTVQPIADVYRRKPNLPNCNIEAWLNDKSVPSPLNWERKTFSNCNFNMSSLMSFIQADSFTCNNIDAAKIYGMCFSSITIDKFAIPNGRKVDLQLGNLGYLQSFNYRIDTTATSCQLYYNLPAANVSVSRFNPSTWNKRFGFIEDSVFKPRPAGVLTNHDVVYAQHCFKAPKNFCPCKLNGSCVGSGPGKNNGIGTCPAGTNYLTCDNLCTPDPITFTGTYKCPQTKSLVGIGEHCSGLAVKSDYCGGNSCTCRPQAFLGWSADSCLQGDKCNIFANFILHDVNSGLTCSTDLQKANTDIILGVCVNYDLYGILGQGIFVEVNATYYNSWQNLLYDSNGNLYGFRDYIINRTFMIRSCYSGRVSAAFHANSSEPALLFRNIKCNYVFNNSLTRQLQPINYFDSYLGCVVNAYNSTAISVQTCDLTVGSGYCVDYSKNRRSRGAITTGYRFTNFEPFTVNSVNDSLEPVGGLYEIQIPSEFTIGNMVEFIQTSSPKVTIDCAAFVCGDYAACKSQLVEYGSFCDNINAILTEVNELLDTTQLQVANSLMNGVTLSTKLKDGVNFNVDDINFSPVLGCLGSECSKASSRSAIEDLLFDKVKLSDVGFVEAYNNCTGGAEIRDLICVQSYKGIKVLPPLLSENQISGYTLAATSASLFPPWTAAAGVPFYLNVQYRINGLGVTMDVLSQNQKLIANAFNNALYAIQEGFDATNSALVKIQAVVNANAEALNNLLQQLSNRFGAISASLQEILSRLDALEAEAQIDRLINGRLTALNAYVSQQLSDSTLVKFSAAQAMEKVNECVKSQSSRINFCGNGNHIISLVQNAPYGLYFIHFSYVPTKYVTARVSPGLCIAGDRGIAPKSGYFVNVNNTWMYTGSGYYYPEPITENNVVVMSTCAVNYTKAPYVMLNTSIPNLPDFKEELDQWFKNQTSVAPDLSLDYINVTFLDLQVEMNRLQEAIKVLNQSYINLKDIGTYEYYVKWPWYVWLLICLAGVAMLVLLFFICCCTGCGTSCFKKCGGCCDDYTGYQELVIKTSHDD
As for B1, the binding result is “binds”.

The next test deals with SARS-CoV-2 Receptor Binding Domain (RBD) (SARS-CoV-2, UniProt P0DTC2). The test can be described thus: AlphaScreen or HTRF. The conditions noted are these: one partner purified.
Take B2: the binding result is “binds”. In the case of B3, the binding result is reported as “binds”.

Turning to B4, the binding result is reported as “binds”. For B5, the binding result was “binds”.

For B6, the binding result was “binds”. On to B7, for which the binding result was “binds”.
